In PMC4608377, “Substrate specificity and transport mechanism of amino-acid transceptor Slimfast from Aedes aegypti” (Nature Communications, 2015):

Key:
Details in all cases: high-affinity site of two-site fit (apparent dissociation constant); 98 mM Na+ buffer; holding voltage -50 mV
[1] = substrate: NCCC[C@H](N)C(=O)O; experiment: cells, lysate or membranes
[2] = substrate: N[C@@H](Cc1ccccc1)C(=O)O; experiment: two-electrode voltage clamp, substrate-induced currents in Xenopus oocytes, two-site saturation fit; type: cell-based, Aedes aegypti
[3] = substrate: N=C(N)NCCC[C@H](N)C(=O)O; experiment: as above; type: cell-based, Aedes aegypti

B1: AaSlif (=AaCAT3; Slimfast) (Aedes aegypti) (protein)
chain: MRQGGRIDRFWIALTRKKRNEDDGSDSQLARVLSLLDLTGLGVGSTLGLGVYVLAGSVAYEQAGPAVVISFLVAAVASAIAALCYAEFAARVPKAGSAYIYSYVSIGEFAAFTIGWNLILEYVIGTSSVARGMSGYIDELAGKKISTALKETMGMNVDFLSDYPDFFSFVVVLILAALLAYGVKESTLMNNIFTGVNLCVIAIVLVAGGMNCDPANWMIKPEDIPKGIDAGVGGFAPYGFAGIMAGAAKCFYGFVGFDCIATTGEEAKNPSRNIPLAIVISLIIIFLAYFGISTVLTMALPYYLQNPDAPFPHLFEQLEWHAIKWIVSIGAIFALCTSLLGAMFPLPRVLYAMSTDGIIYKKLRTVHPKTQTPVLATILAGLLAATMAMLFNLQQLIDMMSIGTLLAYTIVAVSVLVLRYEDQTLMQSATVTIPNVFRQVFNVDKLKSPTTLSSSIVKFGICIFALLVCAVCTILVLATDELSAEYPGTLAAISVLGACMVFLIIVTALQPTENTKLTFKVPLVPLLPMLSVFFNLYLMFQLDAGTWVRFAVWIVIGYLIYFTYGIKHSVEGAIAKQAAVNGNGITIVKNGIDNNAFDGSNDKFVSTVPAENPRKSSKNSYSLNNE
notes: full length, 626 residues (1,881-nt ORF); Xenopus codon-optimised (synonymous) in pXOOM, without tag or with C-terminal eGFP (used interchangeably); cRNA expressed in Xenopus laevis oocytes
Question: What does the source list for B1?
Answer: K0.5 [1]: 13.8 ± 6.2 µM; K0.5 [2]: 15.6 ± 8.5 µM; K0.5 [3]: 5.2 ± 1.4 µM
